Publication PMC10567711, “Structure-guided inhibition of the cancer DNA-mutating enzyme APOBEC3A”

B1: ATTC-hairpin (structured_DNA)
DNA: CCCATCATTCGATGGG
B2: CTTC-hairpin (structured_DNA)
DNA: GCCACCTTCGTGGG

Legend:
A3A-E72A [1] = target: T1, A3A-E72A (human, UniProt P31941 1-199, E72A); assay: X-ray crystallography; 1.91 A; Cl-; ITC: 50 mM Na+/K+ phosphate pH 6.0, 50 mM NaCl, 50 mM choline acetate, 2.5 mM TCEP, 200 uM EDTA, 30 mg/mL BSA, 25 C; NMR inhibition: 50 mM Na+/K+ phosphate pH 7.4, 100 mM NaCl, 1 mM TCEP, 100 uM DSS, 10% D2O, 20 C, 140 nM A3A; conditions: protein: recombinant; hairpin, potential 6 bp stem, 4-nt loop ATTC
A3A-E72A [2] = target: T1, A3A-E72A; assay: X-ray crystallography; Zn2+; 3.15 A; one copy threaded with GACC loop; ITC: 50 mM Na+/K+ phosphate pH 6.0, 50 mM NaCl, 50 mM choline acetate, 2.5 mM TCEP, 200 uM EDTA, 30 mg/mL BSA, 25 C; NMR inhibition: 50 mM Na+/K+ phosphate pH 7.4, 100 mM NaCl, 1 mM TCEP, 100 uM DSS, 10% D2O, 20 C, 140 nM A3A; conditions: protein: recombinant; hairpin, 4 bp stem incl. one AT pair, 4-nt loop CTTC

T1 sequence (P31941 whole entry E72A): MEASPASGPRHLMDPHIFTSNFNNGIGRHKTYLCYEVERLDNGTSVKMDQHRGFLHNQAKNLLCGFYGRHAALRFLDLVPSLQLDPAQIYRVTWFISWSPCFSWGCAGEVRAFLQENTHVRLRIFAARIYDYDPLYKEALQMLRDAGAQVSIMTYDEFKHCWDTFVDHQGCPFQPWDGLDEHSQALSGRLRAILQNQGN

Row | Binder | binding result (A3A-E72A [1]) | binding result (A3A-E72A [2])
1 | B1 | binds | –
2 | B2 | – | binds
